Assay results reported in patent US6001657.

Columns and labels:
[1] = test system: anti-quadruplex monoclonal autoantibody me^v-alphaQ1 (Mus musculus); assay: FP filter; details: nitrocellulose filter binding (RIFB), Scatchard; TEP buffer 50 mM Tris pH 7.4, 5 mM EDTA, 150 mM KCl, 37 C; Ka 2.7e6 M^-1 in table (text prints 2.7e5)
[2] = test system: anti-quadruplex monoclonal autoantibody me^v-alphaQ1 (Mus musculus); assay: filter; details: RIFB, Scatchard, TEP buffer 150 mM KCl, 37 C

TTGGGGTTGGGGTTGGGGTTGGGG [(TET4)4 quadruplex]
Kd [1]: 370 nM

CGCGCGCGCG (double strand) [d(CG5)2 duplex]
Kd ([2]; Ka 3.8e5 M^-1, negative control in screening): 2600 nM

GGGGTTTGGGGTTTCCCC [d(G4T3G4T3C4) triplex]
Kd ([2]; Ka 6.8e5 M^-1): 1500 nM

TGGGG [d(TG4)4 quadruplex]
Kd ([2]; Ka 2.5e6 M^-1): 400 nM

CCCCTTTGGGGTTTGGGG [d(C4T3G4T3G4) triplex]
Kd ([2]; Ka 5.0e5 M^-1): 2000 nM

CGCGGGGGCG [d(CGC G4 GCG)4 quadruplex]
Kd ([2]; Ka 1.6e6 M^-1): 630 nM

poly r(G)
Kd ([2]; Ka 4.0e5 M^-1): 2500 nM
